Three molecules from patent publication JP2014141434A (dated 2014) can be followed below.

T1: rROBO4−ECD (ヒトROBO4細胞外領域ポリペプチド) (human, UniProt Q8WZ75 28-461)
T1 construct: It was cloned in pEF6/V5-His-TOPO; also called ヒトROBO4−ECD; rROBO4-ECD
T1 sequence: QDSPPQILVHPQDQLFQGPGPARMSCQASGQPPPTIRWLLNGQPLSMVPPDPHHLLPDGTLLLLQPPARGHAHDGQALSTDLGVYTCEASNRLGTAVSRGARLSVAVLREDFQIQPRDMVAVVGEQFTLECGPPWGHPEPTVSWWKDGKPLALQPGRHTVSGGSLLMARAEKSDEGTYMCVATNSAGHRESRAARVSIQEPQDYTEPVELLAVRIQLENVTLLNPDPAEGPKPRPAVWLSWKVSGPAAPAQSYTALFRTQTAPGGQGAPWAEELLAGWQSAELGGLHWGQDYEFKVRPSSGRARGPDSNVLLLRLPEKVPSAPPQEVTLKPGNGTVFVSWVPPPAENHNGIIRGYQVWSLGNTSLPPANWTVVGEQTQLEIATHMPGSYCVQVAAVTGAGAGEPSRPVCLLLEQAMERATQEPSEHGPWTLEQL

B1: ヒト化MAb1抗体 H−1140 (antibody, human IgG2, kappa, V domains shown)
VH: EVQLVESGGGLVQPGGSLRLSCAASGFTFSTYAMSWVRQAPGKGLEWVATISQGGTYTYYPDSVKGRFTISRDNAKNTLYLQMNSLRAEDTAVYYCARLIYYDYLDYWGQGTLVTVSS
VL: DIVMTQSPLSLPVTLGEPASISCRSSQSLENSNGNTYLNWYLQKPGQSPQLLIYRVSNRFSGVPDRFSGSGSGTDFTLKISRVEAEDVGVYYCLQVTHVPWTFGPGTKVDIKR
notes: Humanised IgG2 / kappa; also called H-1140; hMAb1-H2 / hMAb1-L1
B2: ヒト化MAb1抗体 H−2040 (antibody, human IgG2, kappa, V domains shown)
VH: EVQLVESGGGLVQPGGSLRLSCAASGFTFSTYAMSWVRQAPGKRLEWVATISNGGTYTYYPDSVKGRFTISRDNAKNTLYLQMNSLRAEDTAVYYCARLIYYDYLDYWGQGTLVTVSS
VL: DIVMTQSPLSLPVTLGEPASISCRSSQSLENSNGNTYLNWYLQKPGQSPQLLIYRVSNRFSGVPDRFSGSGSGTDFTLKISRVEAEDVGVYYCLQVTHVPWTFGPGTKVDIKR
notes: Humanised IgG2 / kappa; also called H-2040; hMAb1-H3 / hMAb1-L1
B3: ヒト化MAb1抗体 H−1040 (antibody, human IgG2, kappa, V domains shown)
VH: EVQLVESGGGLVQPGGSLRLSCAASGFTFSTYAMSWVRQAPGKGLEWVATISNGGTYTYYPDSVKGRFTISRDNAKNTLYLQMNSLRAEDTAVYYCARLIYYDYLDYWGQGTLVTVSS
VL: DIVMTQSPLSLPVTLGEPASISCRSSQSLENSNGNTYLNWYLQKPGQSPQLLIYRVSNRFSGVPDRFSGSGSGTDFTLKISRVEAEDVGVYYCLQVTHVPWTFGPGTKVDIKR
notes: Humanised IgG2 / kappa; also called H-1040; hMAb1-H1 / hMAb1-L1

This assay has as its target T1, rROBO4−ECD (ヒトROBO4細胞外領域ポリペプチド). In words: SPR, Biacore 3000; antibody captured by anti-human IgG on CM5 chip, rROBO4-ECD (0.1-200 nM) as analyte, 1:1 model. (SPR reads the build-up and loss of mass on a sensor chip optically.)
The term Kd denotes the constant that tells how readily two partners part at equilibrium. A high value points to weaker binding. The molecule B1 came in with a Kd of 3.9 nM.

In turn, B2 had a Kd of 0.4 nM.

In turn, B3 gave a Kd of 0.41 nM.
